± gives the uncertainty stated by the source.
Assay: amyloid nucleation score (Sup35N fusion, yeast selection) (log enrichment); library NNK2; higher = more nucleation; inactive = no reads after selection
Outline: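 Psi-negative yeast expressed Sup35N fused to peptides of 20 random codons. They were induced 24 hours with 100 μM copper sulfate, grown 7 days at 30°C without adenine and uracil, and their plasmid inserts from input and output were Illumina-sequenced. The nucleation score is the DiMSum log enrichment of output over input reads, centred on the mode score of non-aggregating sequences. Sequences with under 100 input reads were excluded.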

Point of comparison: RNYHIQYIAVRVLIPASA, amyloid nucleation score 5 ± 0.068. Against it:
- RGMVLS — lower, -0.129 ± 1.1
- RGSSALDE — lower, 0.382 ± 0.35
- RGTMVWTDCFMCLGLYKKVY — lower, -0.896 ± 0.56
- RGTNQSSVSMRGAL — lower, 0.523 ± 0.36
- RGTVVTGF — lower, 1.3 ± 0.44
- RGWCLDRPQYNVFRAMSRSL — lower, 0.066 ± 1
- RGYFPFYNR — lower, -0.907 ± 0.65
- RHLHYRRYKIAAKGLIVFMN — lower, 3.95 ± 0.067
- RHSCFICFNVLVICGLNLSL — higher, 5.927 ± 0.037
- RHYLLFGWIVSPKVELFSPS — lower, 0.895 ± 0.81
- RIFMWAYLAYCDNISEVRRR — lower, -0.554 ± 1
- RILFWSYA — lower, -0.407 ± 0.48
- RIMTPWIGRGRRAHIFLHLW — lower, 1.06 ± 0.29
- RINKGISGRGSD — lower, 0.582 ± 0.57
- RINMPTYLLNWFSCHNYRFS — lower, 3.98 ± 0.093
- RIQSSFFHCC — higher, 7.825 ± 0.036
- RIRASKPVFKAFLTPGSYLF — lower, -1.87 ± 1
- RIRHCGQFYSMHGKRRIATH — lower, 1.17 ± 0.34
- RISRFMPCSRS — lower, 1.11 ± 0.52
- RIVRQSVYQELFYFGQRGSL — lower, 4.19 ± 0.072
- RKIMNGKV — lower, -0.414 ± 0.64
- RKLGYFLRLRKKATHGRLLV — higher, 5.5 ± 0.067
- RKLRVNWERCFHVSEAGLKV — lower, 0.057 ± 1.1
- RKNSLHTMWMGKMVCSCFKL — higher, 5.69 ± 0.063
- RKNSWDISHPAGTCNIRFIL — lower, 0.339 ± 0.61
- RKWLISHPFLRRRGLSSLVF — lower, 0.99 ± 0.2
- RLCAWEVNPARSKAGAV — lower, 0.886 ± 0.57
- RLCGV — lower, -1.17 ± 0.55
- RLCWLEGVIVYRIFGGKLGV — lower, -1.33 ± 0.44
- RLFLSSNST — lower, -1.49 ± 0.54
- RLFTRANCIHFRERKVRKIH — lower, 0.078 ± 0.29
- RLHRTILHVSRTGQFGAHQC — lower, 0.989 ± 0.35
- RLKAPLPYDEIFQLFVIGEI — lower, 0.698 ± 0.8
- RLKELRQDIPVMPNRQL — lower, 1.51 ± 0.3
- RLLFSDCFLVFLPMGCFAFF — lower, 3.69 ± 0.07
- RLLLCLRLSY — lower, 2.7 ± 0.12
- RLLLLPTSLLYSKSWCYSLL — lower, -0.622 ± 0.27
- RLLNTAVLVANESNQNARDR — lower, -0.245 ± 0.29
- RLMVWSSL — lower, 1.87 ± 0.38
- RLRDRNDHVLRCSHYWIQDW — lower, 0.956 ± 0.57
- RLRSILLSWCCRFGGSQLRA — lower, 0.581 ± 0.39
- RLSAHPVAAVLWG — lower, 1.49 ± 0.36
- RLSENFLRWSDVTIQSRLFG — lower, 2.49 ± 0.15
- RLSEVTKDYVGTCNLDRLS — lower, -0.157 ± 0.29
- RLSLQTVRLPLLYIWDEDSW — lower, 3.43 ± 0.15
- RLSNELKRMVYSDQVQGYSR — lower, -0.357 ± 0.48
- RLSPPRNWLVRRRRIFNGLL — lower, -0.757 ± 0.76
- RLTFSSIVTGGLQFKTLL — lower, 2.75 ± 0.1
- RLTPYTFTWSVFEMFNLRMP — lower, -1.09 ± 0.49
- RLTYNKYLTWNCYVFLSHAL — lower, -0.464 ± 1.1
- RLVIGT — lower, 2.41 ± 0.11
- RLVYGLFAYKF — higher, 5.29 ± 0.037
- RLWNSGCLS — lower, -0.916 ± 0.76
- RLWTCLEVLKFSGGLIASMY — lower, -1.05 ± 0.44
- RMCLSVVNWSSRSHRSFHQP — lower, 3.81 ± 0.051
- RMGFWSLGSSSYNWYKTCVL — lower, 0.043 ± 0.74
- RMPVLSCDCRFFYVLSRVNE — lower, -0.566 ± 1
- RMSIICFALKYILYRWMFRL — lower, 0.988 ± 0.74
- RMSVRLKVVHLDAIIVLVLG — lower, 0.877 ± 0.8
- RMWCLGLDPLYTENKGSSDA — lower, -0.427 ± 1.1
- RMWCQVKS — lower, -0.236 ± 0.53
- RMYLRSIVKSLMAWQRLGRI — lower, -0.545 ± 0.55
- RNAQDKESKIGTVSDSNHWV — lower, 0.107 ± 0.36
- RNGLILCLGEVVMSSMESVT — lower, -0.646 ± 0.61
- RNGVNRLELGFLIETLHNAC — lower, 4.622 ± 0.038
- RNLCGFGCVTFRSVLL — lower, 0.279 ± 0.65
- RNMVVGVGRRP — lower, -0.15 ± 0.45
- RNRSGVMW — lower, 0.276 ± 1
- RNSDGPLCSDGVVHFIRMLV — lower, 0.001 ± 0.65
- RNSPSRKNL — lower, -0.415 ± 0.36
- RNTNSANVKSCSMVRNRVWC — lower, 0.604 ± 0.66
- RNYRLRMDGDCGLFFCCGD — higher, 9.348 ± 0.051
- RNYVIFTSEAKVAADIPLYL — lower, 2.45 ± 0.21
- RPDNSDV — lower, -1.61 ± 0.54
- RPFDHANRCRSAVYT — lower, 1.63 ± 0.47
- RPKYCQVVAGLVNYGVRLVV — lower, -0.262 ± 0.49
- RPMLVVSGGTSVLWDWAASD — lower, 0.422 ± 0.64
- RPMWLSGAEKKWLSCWCNCM — higher, 6.013 ± 0.046
- RPQKSSARRIVPFMMFWLGN — lower, 0.426 ± 0.36

For RICVRCPSYYTMWLWCLRFL, the amyloid nucleation score was “inactive”.
For RKFFSIVRFCA, the amyloid nucleation score was “inactive”.
In the case of RKGSTGRDISSNSYIVY, the amyloid nucleation score is reported as “inactive”.
With RKILVKMNYFMRHLMNCVTE the amyloid nucleation score was “inactive”.
In the case of RLGFISRSNLVANDVGKIFL, the amyloid nucleation score is reported as “inactive”.
